According to patent publication US20210269521A1 (L AND L BIOPHARMA, published 2021):
Where a chain is given by its changes, count along the chain named. Numbers in names are those of the source. Like-named read-outs stand apart in the source and are kept apart here.

T1: Marmoset TIM-3 (Marmoset, UniProt F7I881 21-290)
T1 sequence: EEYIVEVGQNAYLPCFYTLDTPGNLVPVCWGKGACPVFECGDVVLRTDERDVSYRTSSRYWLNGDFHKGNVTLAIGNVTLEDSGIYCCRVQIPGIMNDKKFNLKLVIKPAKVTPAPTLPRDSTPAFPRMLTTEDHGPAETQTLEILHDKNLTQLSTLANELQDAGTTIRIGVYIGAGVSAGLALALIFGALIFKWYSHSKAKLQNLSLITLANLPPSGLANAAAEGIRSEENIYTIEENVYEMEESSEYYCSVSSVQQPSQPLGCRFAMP

B1: humanized anti-TIM-3 antibody ab32 (antibody, IgG4, V domains shown)
VH: EVQLVESGGGLVKPGGSLRLSCAASGFTFSDYYMTWVRQAPGKGLEWVSSINYDGRNTYYLDSLKSRFTISRDNAKNSLYLQMNSLRAEDTAVYYCARGYYYYGSSPNYFDYWGQGTLVTVSS
VL: DIQMTQSPSSLSASVGDRVTITCRASENIYSYLTWYQQKPGKAPKLLIYNAKTLAEGVPSRFSGSGSGTDFTLTISSLQPEDFATYYCQQHYGTPLTFGQGTKLEIK
notes: also called ab32 intact antibody
B2: humanized anti-TIM-3 antibody ab6 (antibody, IgG4, V domains shown)
VH: EVQLVESGGGLVKPGGSLRLSCAASGFTFSDYYMAWVRQAPGKGLEWVANINYDGSNTYYLDSLKSRFTISRDNAKNSLYLQMNSLRAEDTAVYYCARGLYYYGGNYFAYWGQGTLVTVSS
VL: DIQMTQSPSSLSASVGDRVTITCHASQGISSNIGWLQQKPGKAFKGLIYQGSNLEDGVPSRFSGSGSGADYTLTISSLQPEDFATYYCVQFAQFPPTFGQGTKLEIK
notes: also called ab6 intact antibody
B3: bispecific antibody LB135 (bispecific antibody, human IgG4 S228P, kappa)
light: EIVLTQSPATLSLSPGERATISCRASKGVSTSGYSYLHWYQQKPGQAPRLLIYLASYLESGVPARFSGSGSGTDFTLTISSLEPEDFATYYCQHSRELPLTFGTGTKVEIKRTVAAPSVFIFPPSDEQLKSGTASVVCLLNNFYPREAKVQWKVDNALQSGNSQESVTEQDSKDSTYSLSSTLTLSKADYEKHKVYACEVTHQGLSSPVTKSFNRGEC
heavy: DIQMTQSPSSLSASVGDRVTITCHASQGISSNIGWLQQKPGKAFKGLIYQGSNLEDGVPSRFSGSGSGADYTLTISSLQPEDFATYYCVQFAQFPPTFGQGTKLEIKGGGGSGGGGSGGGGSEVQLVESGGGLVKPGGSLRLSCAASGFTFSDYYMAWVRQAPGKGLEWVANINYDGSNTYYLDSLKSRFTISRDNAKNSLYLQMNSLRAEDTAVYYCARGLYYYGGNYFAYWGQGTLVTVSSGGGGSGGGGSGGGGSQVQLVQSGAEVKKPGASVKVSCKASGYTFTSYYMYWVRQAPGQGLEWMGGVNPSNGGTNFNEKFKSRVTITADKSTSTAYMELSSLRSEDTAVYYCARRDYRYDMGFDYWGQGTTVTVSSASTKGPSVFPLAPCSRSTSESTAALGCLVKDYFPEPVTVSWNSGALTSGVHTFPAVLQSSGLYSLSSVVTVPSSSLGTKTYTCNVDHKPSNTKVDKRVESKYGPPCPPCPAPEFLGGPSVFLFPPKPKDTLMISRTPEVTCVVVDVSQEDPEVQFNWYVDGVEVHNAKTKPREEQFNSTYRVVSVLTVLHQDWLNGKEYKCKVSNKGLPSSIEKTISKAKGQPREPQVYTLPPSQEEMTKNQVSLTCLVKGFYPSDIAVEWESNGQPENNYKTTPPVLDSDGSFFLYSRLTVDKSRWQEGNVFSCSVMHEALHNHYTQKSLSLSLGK
notes: ab6VL-(G4S)3-ab6VH-(G4S)3-Ba08VH-hIgG4 with Ba08VL-κ
B4: bispecific antibody LB136 (bispecific antibody, human IgG4 S228P, kappa)
light: B3 light
heavy: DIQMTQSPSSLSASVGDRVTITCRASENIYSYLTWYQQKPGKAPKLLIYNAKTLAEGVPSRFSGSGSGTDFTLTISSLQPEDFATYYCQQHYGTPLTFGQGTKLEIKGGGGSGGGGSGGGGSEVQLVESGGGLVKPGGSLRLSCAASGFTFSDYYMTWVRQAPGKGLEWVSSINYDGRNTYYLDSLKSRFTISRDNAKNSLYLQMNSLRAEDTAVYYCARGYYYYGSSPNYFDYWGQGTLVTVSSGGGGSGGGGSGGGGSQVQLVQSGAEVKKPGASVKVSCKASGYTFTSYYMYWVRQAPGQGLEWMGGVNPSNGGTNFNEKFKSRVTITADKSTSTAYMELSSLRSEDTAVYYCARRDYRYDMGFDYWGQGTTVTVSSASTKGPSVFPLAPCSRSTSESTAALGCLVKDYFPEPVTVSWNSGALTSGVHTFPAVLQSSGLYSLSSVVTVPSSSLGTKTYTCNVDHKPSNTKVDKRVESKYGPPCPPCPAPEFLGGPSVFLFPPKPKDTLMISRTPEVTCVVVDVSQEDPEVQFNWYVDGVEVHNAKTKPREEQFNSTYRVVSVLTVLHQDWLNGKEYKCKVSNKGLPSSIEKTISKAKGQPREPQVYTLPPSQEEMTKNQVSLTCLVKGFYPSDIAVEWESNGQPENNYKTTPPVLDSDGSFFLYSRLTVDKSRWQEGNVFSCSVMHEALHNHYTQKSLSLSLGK
notes: ab32VL-(G4S)3-ab32VH-(G4S)3-Ba08VH-hIgG4 with Ba08VL-κ
B5: bispecific antibody LB143 (bispecific antibody, human IgG4 S228P, kappa)
light: B3 light with I21L, T89V, E97D, T104G
heavy: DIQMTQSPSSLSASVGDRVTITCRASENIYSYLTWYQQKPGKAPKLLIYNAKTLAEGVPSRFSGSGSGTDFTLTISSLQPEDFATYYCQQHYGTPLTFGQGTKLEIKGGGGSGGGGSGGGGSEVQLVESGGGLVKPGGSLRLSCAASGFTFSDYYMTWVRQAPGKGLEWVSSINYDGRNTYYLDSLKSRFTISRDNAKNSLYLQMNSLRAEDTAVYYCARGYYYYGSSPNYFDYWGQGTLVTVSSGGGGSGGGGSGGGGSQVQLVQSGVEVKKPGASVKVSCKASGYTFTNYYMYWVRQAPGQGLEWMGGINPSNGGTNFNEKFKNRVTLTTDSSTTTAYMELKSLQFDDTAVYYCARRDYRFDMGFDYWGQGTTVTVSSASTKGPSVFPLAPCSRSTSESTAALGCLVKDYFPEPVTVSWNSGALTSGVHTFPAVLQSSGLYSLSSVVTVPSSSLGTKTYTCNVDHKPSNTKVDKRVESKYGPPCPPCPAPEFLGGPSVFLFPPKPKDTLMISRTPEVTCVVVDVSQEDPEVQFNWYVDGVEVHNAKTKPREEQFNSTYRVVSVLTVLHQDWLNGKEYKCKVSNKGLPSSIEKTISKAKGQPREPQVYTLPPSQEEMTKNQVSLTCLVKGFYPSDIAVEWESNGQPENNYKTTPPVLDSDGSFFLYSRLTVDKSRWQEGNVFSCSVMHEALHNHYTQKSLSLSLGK
notes: ab32VL-(G4S)3-ab32VH-(G4S)3-PemVH-hIgG4 with PemVL-κ
B6: Tim3-0028 (antibody of US20170114135A1) (antibody, V domains shown)
VH: EVQLQQSVAELVRPGASVKLSCTASGFNIKTTYMHWVKQRPEQGLEWIGRIDPADDNTKYAPKFQGKATITADTSSNTAYLQLSSLTSEDAAIYYCVRDFGYVAWFAYWGQGTLVTFSA
VL: NIVMTPTPKFLPVSSGDRVTMTCRASQSVDNYVAWYQQKPGQSPKLLIYYASNRYIGVPDRFTGSGSGTDFTFTISSVQVEDLAVYFCQQHYSSPYTFGSGTKLEIK
B7: bispecific antibody LB127 (bispecific antibody, human IgG4 S228P, kappa)
light: DIQMTQSPSSLSASVGDRVTITCHASQGISSNIGWLQQKPGKAFKGLIYQGSNLEDGVPSRFSGSGSGADYTLTISSLQPEDFATYYCVQFAQFPPTFGQGTKLEIKRTVAAPSVFIFPPEIVLTQSPATLSLSPGERATISCRASKGVSTSGYSYLHWYQQKPGQAPRLLIYLASYLESGVPARFSGSGSGTDFTLTISSLEPEDFATYYCQHSRELPLTFGTGTKVEIKRTVAAPSVFIFPPSDEQLKSGTASVVCLLNNFYPREAKVQWKVDNALQSGNSQESVTEQDSKDSTYSLSSTLTLSKADYEKHKVYACEVTHQGLSSPVTKSFNRGEC
heavy: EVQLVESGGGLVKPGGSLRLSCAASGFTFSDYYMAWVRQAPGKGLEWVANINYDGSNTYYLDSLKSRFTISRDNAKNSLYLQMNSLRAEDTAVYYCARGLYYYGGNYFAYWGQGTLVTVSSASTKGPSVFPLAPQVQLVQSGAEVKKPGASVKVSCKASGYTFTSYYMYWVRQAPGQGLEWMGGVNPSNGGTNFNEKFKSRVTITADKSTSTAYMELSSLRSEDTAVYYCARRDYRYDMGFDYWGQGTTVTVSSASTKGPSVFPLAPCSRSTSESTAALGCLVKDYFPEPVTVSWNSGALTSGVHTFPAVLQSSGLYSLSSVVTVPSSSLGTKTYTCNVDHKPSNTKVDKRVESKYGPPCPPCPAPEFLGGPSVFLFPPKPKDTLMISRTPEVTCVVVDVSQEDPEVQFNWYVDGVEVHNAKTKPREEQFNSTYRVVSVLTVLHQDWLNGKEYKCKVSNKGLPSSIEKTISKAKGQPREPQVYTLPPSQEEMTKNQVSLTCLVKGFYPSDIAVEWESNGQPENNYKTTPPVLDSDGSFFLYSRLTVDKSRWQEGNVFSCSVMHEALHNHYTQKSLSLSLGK
B8: bispecific antibody LB129 (bispecific antibody, human IgG4 S228P, kappa)
light: DIQMTQSPSSLSASVGDRVTITCRASENIYSYLTWYQQKPGKAPKLLIYNAKTLAEGVPSRFSGSGSGTDFTLTISSLQPEDFATYYCQQHYGTPLTFGQGTKLEIKRTVAAPSVFIFPPEIVLTQSPATLSLSPGERATISCRASKGVSTSGYSYLHWYQQKPGQAPRLLIYLASYLESGVPARFSGSGSGTDFTLTISSLEPEDFATYYCQHSRELPLTFGTGTKVEIKRTVAAPSVFIFPPSDEQLKSGTASVVCLLNNFYPREAKVQWKVDNALQSGNSQESVTEQDSKDSTYSLSSTLTLSKADYEKHKVYACEVTHQGLSSPVTKSFNRGEC
heavy: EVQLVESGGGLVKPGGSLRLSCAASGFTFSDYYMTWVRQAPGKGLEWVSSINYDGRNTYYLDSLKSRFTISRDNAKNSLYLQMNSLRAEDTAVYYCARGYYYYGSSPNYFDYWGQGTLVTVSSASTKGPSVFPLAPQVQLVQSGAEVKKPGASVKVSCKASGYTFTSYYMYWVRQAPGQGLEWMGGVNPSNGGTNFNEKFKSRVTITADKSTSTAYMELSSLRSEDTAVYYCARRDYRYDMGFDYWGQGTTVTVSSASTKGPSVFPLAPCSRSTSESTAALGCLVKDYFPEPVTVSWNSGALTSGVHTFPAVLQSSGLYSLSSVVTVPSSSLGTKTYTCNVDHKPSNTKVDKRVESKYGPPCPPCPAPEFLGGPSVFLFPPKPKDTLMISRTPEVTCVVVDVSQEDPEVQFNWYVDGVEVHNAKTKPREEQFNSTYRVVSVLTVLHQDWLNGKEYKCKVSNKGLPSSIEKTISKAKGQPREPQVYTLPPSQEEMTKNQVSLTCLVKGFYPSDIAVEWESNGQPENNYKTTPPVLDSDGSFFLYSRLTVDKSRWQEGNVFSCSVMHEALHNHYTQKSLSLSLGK

Experiments:
[1] = biological target: T2, human TIM-3 extracellular domain-human IgG1 Fc fusion protein (human, UniProt Q8TDQ0 22-199); test: ELISA
T2 construct: Made in house or bought (ACROBiosystems TM3-H5258); also called TIM-3-hFc; not shown: human IgG1 Fc
Method: Goat-anti-hFc (Jackson, 109-005-008) was diluted to a concentration of 1 μg/ml with PBS buffer (pH 7.4) and added to a 96-well microplate (Corning, CLS3590-100EA) at a volume of 50 μl/well, then incubated in an incubator at 37° C. for 2 hours (Or the antigen TIM-3 was directly used to coat the microplate with a concentration of 0.5 μg/ml, and then the antibody to be tested was directly added). After discarding the liquid, a blocking solution of 5% skimmed milk (skimmed milk powder purchased from Bright) diluted with PBS was added at 200 μl per well, and the microplate was incubated for 2.5 hours at 37° C. or overnight (16-18 hours) at 4° C. for blocking. The blocking solution was discarded, and the microplate was washed 5 times with PBST buffer (PBS with pH 7.4 containing 0.05% tween-20), then 50 μl/well of 0.5 μg/ml TIM-3-hFc (Example 1) was added and incubated for 2 hours in a 37° C. incubator. After incubation, the microplate was washed 6 times with PB ST. 50 μl/well of supernatant (containing testing antibody) or different concentrations of the antibody to be tested was added, and the microplate was incubated at 37° C. for 2 hours and washed 5 times with PBST. 50 μl/well of 1:2500 diluted HRP-labeled secondary antibody (Jackson Immuno Research, 115-035-003) was added to the microplate, incubating at 37° C. for 1 hour. After washing the microplate 5 times with PBST, 50 μl/well TMB chromogenic substrate (KPL, 52-00-03) was added to the microplate, followed by incubating at room temperature for 10-15 min.
(§1) The above-mentioned TIM-3 and PD-1 bispecific antibodies of the present invention were optimized and designed using the methods of Example 2 and Example 5, and their affinity for TIM-3 and PD-1 were tested respectively.

[2] = biological target: T3, human TIM-3 extracellular domain-his tag protein (human, UniProt Q8TDQ0 22-199); test: SPR Biacore, antibody captured on Protein A, TIM-3-his in flow
T3 construct: Made in house or bought (ACROBiosystems TM3-H5229); also called TIM-3-his; Human Tim3-his; not shown: his tag
Method: First, Protein A (Thermo Pierce, Cat #21181) was conjugated to the biosensing chip CMS (Cat. #BR-1005-30, GE), and the chip was activated with the newly prepared 50 mM NHS (N-hydroxysuccinimide) and 200 mM EDC [1-ethyl-3-(3-dimethylaminopropyl) carbodiimide hydrochloride], then 10 μg/ml Protein A prepared with 10 mM NaAC (pH 4.0) was injected. […] The flow rate was 30 μl/min, the binding time was 180 seconds and the dissociation time is 300 seconds. Subsequently, the chip was washed for 30s with 10 mM Glycine-HCl (pH 1.5) at 30 μl/min. The data were fitted with a 1:1 Langmuir model using the software of Biacore T200 evaluation version 3.0 (GE), and the affinity value KD was obtained.

[3] = biological target: T2, human TIM-3 extracellular domain-human …; test: ELISA; remark: listed apart in the source
[4] = biological target: T2, human TIM-3 extracellular domain-human …; test: ELISA on human TIM-3, OD450 against Log[nM] of antibody
[5] = biological target: T3, human TIM-3 extracellular domain-his …; test: ELISA, human TIM-3-his
[6] = biological target: T2, human TIM-3 extracellular domain-human …; test: ELISA; remark: listed apart in the source
[7] = biological target: T4, human PD-1 extracellular domain protein expressed in Example 1 (tag not stated) (human, UniProt Q15116 25-170); test: ELISA, PD-1 coated
T4 construct: extracellular domain; also called PD-1 protein; not shown: human IgG1 Fc or his tag
Method: (§2) PD-1 expressed in Example 1 was diluted to a concentration of 1 μg/ml with PBS buffer, pH 7.4, and added to a 96-well microplate (Corning, CLS3590-100EA) at 50 μl per well, thereby incubating in an incubator at 37° C. for 2 hours. After discarding the liquid, a blocking solution of 5% skimmed milk (Shanghai Shenggong Biological Engineering Co., Ltd., A600669-0250) diluted with PBS was added at 200 μl per well, followed by incubating at 37° C. for 3 hours or 4° C. overnight (16-18 hours)) for blocking. Subsequently, the blocking solution was discarded, and the microplate was washed 5 times with PBST buffer (pH 7.4 PBS containing 0.05% tween-20). […] Subsequently, the microplate was washed 5 times with PBST, then 50 μl/well of 1:2500 diluted HRP-labeled secondary antibody (Jackson Immuno Research, 115-035-003) was added, thereby incubating at 37° C. for 1 hour. After washing the microplate 5 times with PBST, 50 μl/well TMB chromogenic substrate (KPL, 52-00-03) was added, then incubated at room temperature for 5-10 min. Finally, 50 μl/well of 1M H₂SO₄ was added to stop the reaction. […] Go microplate reader (ThermoFisher, 51119200) was used to read the absorption value at 450 nm and the EC50 based on the OD value was calculated.
as §1

[8] = biological target: T4, human PD-1 extracellular domain protein …; test: blocking ELISA, PD-1 coated, competitor biotin-labeled PD-L1
Marmoset TIM-3 = biological target: T1, Marmoset TIM-3; test: ELISA
[9] = biological target: T4, human PD-1 extracellular domain protein …; test: ELISA, PD-1 coated; remark: listed apart in the source
Method: as §2
The TIM-3 and PD-1 bispecific antibodies of the present invention were tested for their affinity for TIM-3 and PD-1 using the methods in Example 3 and Example 5, respectively.

Binder | EC50 [1] | EC50 [6] | EC50 [7] | IC50 [8] | also measured
B1 | 0.036 nM | – | – | – | Kd [2]: 1.18 nM; koff [2]: 0.000296 s⁻¹; kon [2]: 251000 M⁻¹ s⁻¹; EC50 [3]: 0.09 nM; EC50 (read off the curve) [4]: ~0.2 nM
B2 | 0.087 nM | 0.095 nM | – | – | Kd [2]: 2.83 nM; koff [2]: 0.00235 s⁻¹; kon [2]: 834000 M⁻¹ s⁻¹; EC50 [3]: 0.084 nM; EC50 [5]: 0.11 nM
B3 | 0.145 nM | – | 0.082 nM | 1.49 nM | –
B4 | 0.178 nM | – | 0.065 nM | 1 nM | –
B5 | 0.14 nM | – | 0.064 nM | 1.88 nM | –
B6 | – | – | – | – | EC50 (Marmoset TIM-3): 36.2 nM
B7 | – | 0.325 nM | – | – | EC50 [9]: 0.423 nM
B8 | – | 0.558 nM | – | – | EC50 [9]: 0.508 nM
